In US20210292423A1 (published 2021):
Read-outs that look alike come from different tables or passages of the source.

Tests used:
[1] = target: T1, human CD3ε/δ-Fc fusion protein (soluble recombinant CD3ε/δ complex) (human, UniProt P04234 22-105); assay: SPR Biacore
T1 construct: also called huCD3ε/δ; huCD3; not shown: hinge, CH2, CH3 of human IgG with tag

[2] = target: T2, human CD123 Strep-II tagged Fc-fusion protein (human); assay: SPR Biacore
T2 construct: also called human CD123-Fc; recombinant CD123
T2 sequence (chain, as listed by the source limits assumed): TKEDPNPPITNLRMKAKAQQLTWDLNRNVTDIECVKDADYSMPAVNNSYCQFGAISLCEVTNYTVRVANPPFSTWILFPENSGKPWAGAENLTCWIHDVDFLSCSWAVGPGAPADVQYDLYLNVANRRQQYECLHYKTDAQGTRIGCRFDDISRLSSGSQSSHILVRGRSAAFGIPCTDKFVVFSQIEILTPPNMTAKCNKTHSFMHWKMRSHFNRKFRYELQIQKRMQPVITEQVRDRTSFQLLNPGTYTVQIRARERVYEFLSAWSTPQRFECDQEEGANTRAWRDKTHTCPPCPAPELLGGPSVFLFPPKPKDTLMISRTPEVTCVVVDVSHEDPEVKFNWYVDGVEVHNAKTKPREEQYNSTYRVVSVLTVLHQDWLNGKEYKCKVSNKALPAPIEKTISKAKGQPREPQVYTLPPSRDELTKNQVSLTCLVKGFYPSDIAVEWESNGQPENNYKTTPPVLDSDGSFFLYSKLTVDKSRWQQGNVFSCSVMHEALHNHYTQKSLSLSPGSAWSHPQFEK

[3] = target: T3, human CD123 (IL3RA) on cells (human, UniProt P26951 19-378); assay: cell-based or functional assay
T3 sequence (P26951 19-378): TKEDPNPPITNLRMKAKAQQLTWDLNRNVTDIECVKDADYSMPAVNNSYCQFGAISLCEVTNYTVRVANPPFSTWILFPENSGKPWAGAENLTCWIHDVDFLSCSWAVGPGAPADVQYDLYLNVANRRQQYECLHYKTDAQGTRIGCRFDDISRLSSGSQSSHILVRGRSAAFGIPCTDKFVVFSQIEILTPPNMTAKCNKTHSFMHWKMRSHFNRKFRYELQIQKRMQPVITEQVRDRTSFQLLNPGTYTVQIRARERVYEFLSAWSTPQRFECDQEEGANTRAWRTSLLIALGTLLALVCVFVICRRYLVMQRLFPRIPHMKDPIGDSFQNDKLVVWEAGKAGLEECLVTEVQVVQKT

[4] = target: T1, human CD3ε/δ-Fc fusion protein (soluble …); assay: SPR Biacore, CODV-Fab
Description: (§1) Binding affinities of anti-CD3 binding Fabs or CODV-Fabs were measured by surface plasmon resonance (SPR) using a Biacore3000 instrument (GE Healthcare). Assay buffer was HBS-EP (BR-1001-88, GE Healthcare). Capture of CD3ε/δ-Fc fusion proteins was achieved using the human antibody capture kit (GE Healthcare). […] The CD3εδ-Fc fusions proteins were captured at 10 μl/min to approx. 70 RU to yield Rmax values of 30 RU. Binding kinetics with the anti-CD3 Fabs or CODV-Fabs was measured at 30 μl/min for 240 sec. and 600 sec. for association and dissociation phase, respectively. Twofold dilutions of Fabs from 3 to 400 nM in assay buffer were used. All Fab concentrations were run in duplicate together with duplicate buffer blanks for double referencing. Regeneration of the capture surface was performed with a 1 min injection of 3M MgCl2 solution at 30 μl/min. For data analysis the BIAevaluation software v.4.1 (GE Healthcare) was used. Data were fit globally using a 1:1 Langmuir model with mass transfer.

[5] = target: T3, human CD123 (IL3RA) on cells; assay: cell-based or functional assay; remark: listed apart in the source
[6] = target: T1, human CD3ε/δ-Fc fusion protein (soluble …); assay: SPR Biacore, CODV-Fab on recombinant CD3ε/δ
Description: as §1

[7] = target: T1, human CD3ε/δ-Fc fusion protein (soluble …); assay: SPR Biacore; remark: listed apart in the source
[8] = target: T2, human CD123 Strep-II tagged Fc-fusion …; assay: SPR Biacore; remark: listed apart in the source
[9] = target: T4, human CD3 (TCR complex) on primary human T cells or Jurkat cells (human, UniProt P07766 23-207); assay: cell-based or functional assay
T4 sequence (P07766 23-207, one chain of several): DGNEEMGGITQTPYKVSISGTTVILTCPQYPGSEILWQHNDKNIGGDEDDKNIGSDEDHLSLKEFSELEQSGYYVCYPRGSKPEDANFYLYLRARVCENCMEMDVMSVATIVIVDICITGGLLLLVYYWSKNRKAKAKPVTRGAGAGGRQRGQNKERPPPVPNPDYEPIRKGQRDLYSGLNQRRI

[10] = target: T3, human CD123 (IL3RA) on cells; assay: cell-based or functional assay; remark: listed apart in the source
[11] = target: T4, human CD3 (TCR complex) on primary …; assay: cell-based or functional assay; remark: listed apart in the source

T1 sequence (chain, as listed by the source mutant, chain 1 of 2): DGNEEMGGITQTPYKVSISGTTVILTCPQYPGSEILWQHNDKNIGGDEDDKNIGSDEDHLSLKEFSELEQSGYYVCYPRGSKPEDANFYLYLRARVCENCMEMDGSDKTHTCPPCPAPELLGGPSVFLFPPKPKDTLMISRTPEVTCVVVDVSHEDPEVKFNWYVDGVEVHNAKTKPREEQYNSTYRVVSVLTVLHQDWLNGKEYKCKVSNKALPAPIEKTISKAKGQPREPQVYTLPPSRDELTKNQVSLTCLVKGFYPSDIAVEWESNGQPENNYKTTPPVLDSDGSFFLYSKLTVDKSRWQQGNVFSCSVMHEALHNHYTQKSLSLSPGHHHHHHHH
T1 sequence (P04234 22-105, stated change not applied, chain 2 of 2): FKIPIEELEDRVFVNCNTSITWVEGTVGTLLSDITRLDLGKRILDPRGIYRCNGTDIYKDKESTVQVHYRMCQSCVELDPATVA

Binder | Kd [1] [nM] | Kd [2] [nM] | Kd [4] [nM] | koff [4] [s⁻¹] | kon [4] [M⁻¹ s⁻¹] | Kd [7] [nM] | T cell activation with THP-1 target cells, CD4+ T cells (% CD69+ cells) EC50 (pM) [9] [pM] | T cell activation with THP-1 target cells, CD8+ T cells (% CD69+ cells) EC50 (pM) [9] [pM] | Jurkat-NFAT-Luc reporter, no target cells, activation at Cmax in relation to max. activation in assay with target cells (%) [11] [%] | Jurkat-NFAT-Luc reporter, with THP1 cells, EC50 (pM) [11] [pM] | Cytotoxic assay (THP cells) EC50 [pM] [3] [pM] | Activity EC50 [ng/ml], cytotoxic assay on THP-1 with human T cells [5] [ng/mL] | other results
CODV-Fab 7G3xhz4B4 antibody-like binding protein (bispecific antibody, also called 7G3 × hz4B4 CODV-Fab) light: DVVMTQTPVSLSVSVGGRVSISCRSSQSLVHDNGNTYLSWSLQKPGKSPKVLIYKVSNRFSGVSSRFTGSGSGTDFTLKISSVQPDDLGVYYCGQGTQYPFTFGSGTKLEIKGQPKAAPDFVMTQSPSSLTVTAGEKVTMSCKSSQSLLNSGNQKNYLTWYLQKPGQPPKLLIYWASTRESGVPDRFTGSGSGTDFTLTISSVQAEDLAVYYCQNDYSYPYTFGGGTKLEIKTKGPSRTVAAPSVFIFPPSDEQLKSGTASVVCLLNNFYPREAKVQWKVDNALQSGNSQESVTEQDSKDSTYSLSSTLTLSKADYEKHKVYACEVTHQGLSSPVTKSFNRGEC heavy: EVQLQQSGPELVKPGASVKMSCKASGYTFTDYYMKWVKQSHGKSLEWIGDIIPSNGATFYNQKFKGKATLTVDRSSSTAYMHLNSLTSEDSAVYYCTRSHLLRASWFAYWGQGTLVTVSASQVQLVETGGGLVKPGQSLKLTCATSGFTFSNAWMHWVRQSPEKGLEWVAQIKARSNNYATYYAESVKGRFTISRDDSKSTIYLQMNSLTPEDTAIYYCRGTYYASKPFDYWGQGVMVTVSSRTASTKGPSVFPLAPSSKSTSGGTAALGCLVKDYFPEPVTVSWNSGALTSGVHTFPAVLQSSGLYSLSSVVTVPSSSLGTQTYICNVNHKPSNTKVDKKVEPKSCDKTHTHHHHHH | 5.4 | 0.1 | – | – | – | – | – | – | – | – | 26.7 | – | –
CODV-Fab 7G3x4B4 antibody-like binding protein (bispecific antibody, also called 7G3 × 4B4) light: DVVMTQTPVSLSVSLGGQVSISCRSSQSLVHDNGNTYLSWSLQRPGQSPQVLIYKVSNRFSGTSDRFTGSGSGTDFTLKISRVEPDDLGVYYCGQGTQYPFTFGSGTKLEIKGQPKAAPDFVMTQSPSSLTVTAGEKVTMSCKSSQSLLNSGNQKNYLTWYLQKPGQPPKLLIYWASTRESGVPDRFTGSGSGTDFTLTISSVQAEDLAVYYCQNDYSYPYTFGGGTKLEIKTKGPSRTVAAPSVFIFPPSDEQLKSGTASVVCLLNNFYPREAKVQWKVDNALQSGNSQESVTEQDSKDSTYSLSSTLTLSKADYEKHKVYACEVTHQGLSSPVTKSFNRGEC heavy: EVQLQQSGPELVKPGASVKMSCKASGYTFTDYYMKWVKQSHGKSLEWIGDIIPSNGATFYNQKFKGKATLTVDRSSSTAYMHLNSLTSEDSAVYYCTRSHLLRASWFAYWGQGTLVTVSASEVQLVETGGRLVQPGRSLKLTCATSGFTFSNAWMHWVRQSPEKQLEWVAQIKARSNNYATYYAESVKGRFTISRDDSKSTIYLQMNSLKEEDTAIYYCRGTYYASKPFDYWGQGVMVTVSSRTASTKGPSVFPLAPSSKSTSGGTAALGCLVKDYFPEPVTVSWNSGALTSGVHTFPAVLQSSGLYSLSSVVTVPSSSLGTQTYICNVNHKPSNTKVDKKVEPKSCDKTHTHHHHHH | – | – | 17 | 0.0044 | 270000 | – | – | – | – | – | – | 11 | –
CODV-Fab 7G3x20G6 antibody-like binding protein (bispecific antibody, formula I and formula II chains; hinge and His-tag added C-terminally to formula II; also called 7G3 × 20G6) light: DVVMTQTPVSLSVSLGGQVSISCRSSQSLVHNNGNTYLSWYLQKPGQSPQSLIYKVSNRFSGFSDRFSGSGSGTDFTLKISRVDPDDLGVYYCGQGTQYPFTFGSGTKLEIKGQPKAAPDFVMTQSPSSLTVTAGEKVTMSCKSSQSLLNSGNQKNYLTWYLQKPGQPPKLLIYWASTRESGVPDRFTGSGSGTDFTLTISSVQAEDLAVYYCQNDYSYPYTFGGGTKLEIKTKGPSRTVAAPSVFIFPPSDEQLKSGTASVVCLLNNFYPREAKVQWKVDNALQSGNSQESVTEQDSKDSTYSLSSTLTLSKADYEKHKVYACEVTHQGLSSPVTKSFNRGEC heavy: EVQLQQSGPELVKPGASVKMSCKASGYTFTDYYMKWVKQSHGKSLEWIGDIIPSNGATFYNQKFKGKATLTVDRSSSTAYMHLNSLTSEDSAVYYCTRSHLLRASWFAYWGQGTLVTVSASEVQLVETGGSLVQPGKSLKLTCATSGFTFTKAWMHWVRQSPEKQLEWVAQIKDKSNSYATYYAESVKGRFTISRDDSKSTIYLQMNSLKEEDTAIYYCRGVYYALSPFDYWGQGVMVTVSSRTASTKGPSVFPLAPSSKSTSGGTAALGCLVKDYFPEPVTVSWNSGALTSGVHTFPAVLQSSGLYSLSSVVTVPSSSLGTQTYICNVNHKPSNTKVDKKVEPKSCDKTHTHHHHHH | – | – | 7 | 0.00051 | 72000 | – | – | – | – | – | – | 18 | Kd [6]: 26.3 nM; koff [6]: 0.000571 s⁻¹; kon [6]: 21700 M⁻¹ s⁻¹
CODV-Fab hz20G6x7G3 antibody-like binding protein (bispecific antibody, also called hz20G6 × 7G3 CODV-Fab) light: DFVMTQSPSSLTVTAGEKVTMSCKSSQSLLNSGNQKNYLTWYLQKPGQPPKLLIYWASTRESGVPDRFTGSGSGTDFTLTISSVQAEDLAVYYCQNDYSYPYTFGGGTKLEIKGQPKAAPDIVMTQTPLSLSVTPGQPASISCKSSQSLVHNNGNTYLSWYLQKPGQSPQSLIYKVSNRFSGVPDRFSGSGSGTDFTLKISRVEAEDVGVYYCGQGTQYPFTFGSGTKVEIKTKGPSRTVAAPSVFIFPPSDEQLKSGTASVVCLLNNFYPREAKVQWKVDNALQSGNSQESVTEQDSKDSTYSLSSTLTLSKADYEKHKVYACEVTHQGLSSPVTKSFNRGEC heavy: QVQLVESGGGVVQPGRSLRLSCAASGFTFTKAWMHWVRQAPGKQLEWVAQIKDKSNSYATYYADSVKGRFTISRDDSKNTLYLQMNSLRAEDTAVYYCRGVYYALSPFDYWGQGTLVTVSSSEVQLQQSGPELVKPGASVKMSCKASGYTFTDYYMKWVKQSHGKSLEWIGDIIPSNGATFYNQKFKGKATLTVDRSSSTAYMHLNSLTSEDSAVYYCTRSHLLRASWFAYWGQGTLVTVSARTASTKGPSVFPLAPSSKSTSGGTAALGCLVKDYFPEPVTVSWNSGALTSGVHTFPAVLQSSGLYSLSSVVTVPSSSLGTQTYICNVNHKPSNTKVDKKVEPKSCDKTHTHHHHHH | 5 | 0.6 | – | – | – | – | – | – | – | – | 30.9 | – | –

Further lines, with some results ahead:

Kd [1] [nM] | Kd [2] [nM] | Kd [4] [nM] | koff [4] [s⁻¹] | kon [4] [M⁻¹ s⁻¹] | Kd [7] [nM] | T cell activation with THP-1 target cells, CD4+ T cells (% CD69+ cells) EC50 (pM) [9] [pM] | T cell activation with THP-1 target cells, CD8+ T cells (% CD69+ cells) EC50 (pM) [9] [pM] | Jurkat-NFAT-Luc reporter, no target cells, activation at Cmax in relation to max. activation in assay with target cells (%) [11] [%] | Jurkat-NFAT-Luc reporter, with THP1 cells, EC50 (pM) [11] [pM] | Binder | Cytotoxic assay (THP cells) EC50 [pM] [3] [pM] | Activity EC50 [ng/ml], cytotoxic assay on THP-1 with human T cells [5] [ng/mL] | other results
– | – | – | – | – | 9 | 1.4 | 3.1 | 0.2 | 561 | CODV-Fab hz20G6xhz7G3 antibody-like binding protein (bispecific antibody, also called hz20G6xhz7G3 CODV-Fab) light: DIVMTQSPDSLAVSLGERATINCESSQSLLNSGNQKNYLTWYQQKPGQPPKPLIYWASTRESGVPDRFSGSGSGTDFTLTISSLQAEDVAVYYCQNDYSYPYTFGQGTKLEIKGGSGSSGSGGDIVMTQTPLSLSVTPGQPASISCKSSQSLVHNNANTYLSWYLQKPGQSPQSLIYKVSNRFSGVPDRFSGSGSGTDFTLKISRVEAEDVGVYYCGQGTQYPFTFGSGTKVEIKGGSGSSGSGGRTVAAPSVFIFPPSDEQLKSGTASVVCLLNNFYPREAKVQWKVDNALQSGNSQESVTEQDSKDSTYSLSSTLTLSKADYEKHKVYACEVTHQGLSSPVTKSFNRGEC heavy: QVQLVESGGGVVQPGRSLRLSCAASGFTFTKAWMHWVRQAPGKQLEWVAQIKDKSNSYATYYADSVKGRFTISRDDSKNTLYLQMNSLRAEDTAVYYCRGVYYALSPFDYWGQGTLVTVSSEVQLVQSGAEVKKPGESLKISCKGSGYSFTDYYMKWARQMPGKGLEWMGDIIPSSGATFYNQKFKGQVTISADKSISTTYLQWSSLKASDTAMYYCARSHLLRASWFAYWGQGTMVTVSSASTKGPSVFPLAPSSKSTSGGTAALGCLVKDYFPEPVTVSWNSGALTSGVHTFPAVLQSSGLYSLSSVVTVPSSSLGTQTYICNVNHKPSNTKVDKKVEPKSCDKTHTHHHHHH | – | – | Kd [8]: 0.2 nM; Cytotoxic assay (THP cells) EC50 [pM] [10]: 2.1 pM
– | – | – | – | – | 15 | 1 | 3.3 | 0.4 | 320 | CODV-Fab-OL1 hz20G6xhz7G3 antibody-like binding protein (bispecific antibody, human IgG1, kappa, L234A L235A, formula I chain, formula III chain and Fc stump (Fc3); also called hz20G6xhz7G3 CODV-Fab-OL1; hz20G6xhz7G3 CODV-OL1) light: DIVMTQSPDSLAVSLGERATINCESSQSLLNSGNQKNYLTWYQQKPGQPPKPLIYWASTRESGVPDRFSGSGSGTDFTLTISSLQAEDVAVYYCQNDYSYPYTFGQGTKLEIKGGSGSSGSGGDIVMTQTPLSLSVTPGQPASISCKSSQSLVHNNANTYLSWYLQKPGQSPQSLIYKVSNRFSGVPDRFSGSGSGTDFTLKISRVEAEDVGVYYCGQGTQYPFTFGSGTKVEIKGGSGSSGSGGRTVAAPSVFIFPPSDEQLKSGTASVVCLLNNFYPREAKVQWKVDNALQSGNSQESVTEQDSKDSTYSLSSTLTLSKADYEKHKVYACEVTHQGLSSPVTKSFNRGEC heavy: not shown GSDKTHTCPPCPAPEAAGGPSVFLFPPKPKDTLMISRTPEVTCVVVDVSHEDPEVKFNWYVDGVEVHNAKTKPREEQYNSTYRVVSVLTVLHQDWLNGKEYKCKVSNKALPAPIEKTISKAKGQPREPQVCTLPPSRDELTKNQVSLSCAVKGFYPSDIAVEWESNGQPENNYKTTPPVLDSDGSFFLVSKLTVDKSRWQQGNVFSCSVMHEALHNHYTQKSLSLSPG | – | – | –
